In US20120121706A1 (TUFTS MEDICAL CENTER, published 2012):

B1: proMMP-1 (platelet-associated zymogen of MMP-1) (enzyme, human, UniProt P03956 20-469, looked up)
chain: FPATLETQEQDVDLVQKYLEKYYNLKNDGRQVEKRRNSGPVVEKLKQMQEFFGLKVTGKPDAETLKVMKQPRCGVPDVAQFVLTEGNPRWEQTHLTYRIENYTPDLPRADVDHAIEKAFQLWSNVTPLTFTKVSEGQADIMISFVRGDHRDNSPFDGPGGNLAHAFQPGPGIGGDAHFDEDERWTNNFREYNLHRVAAHELGHSLGLSHSTDIGALMYPSYTFSGDVQLAQDDIDGIQAIYGRSQNPVQPIGPQTPKACDSKLTFDAITTIRGEVMFFKDRFYMRTNPFYPEVELNFISVFWPQLPNGLEAAYEFADRDEVRFFKGNKYWAVQGQNVLHGYPKDIYSSFGFPRTVKHIDAALSEENTGKTYFFVANKYWRYDEYKRSMDPGYPKMIAHDFPGIGHKVDAVFMKDGFFYFFHGTRQYKFDPKTKRILTLQKANSWFNCRKN
notes: Endogenous protein co-immunoprecipitated from platelet lysates; detected by Western with AB8105 or AB806; also called MMP-1 (predominantly in the pro form)

Columns and labels:
[1] = target: PAR1 (protease-activated receptor-1) on human platelets (human) (UniProt P25116); test: cell-based or functional assay
[2] = target: PAR4 thrombin receptor on human platelets (human) (UniProt Q96RI0); test: cell-based or functional assay
GPIbα of human platelets = GPIbα of human platelets (human, UniProt P07359 17-652); test: co-immunoprecipitation from resting human platelet lysates (anti-GPIBα MM2/174), Western for MMP-1
Protocol: (§1) One candidate binding site(s) for the platelet-associated proMMP-1 is the α₂β₁ collagen receptor. To determine if proMMP-1 associates with integrins in resting human platelets, lysates from gel-filtered platelets were incubated with 4-5 μg/ml anti-α₂ (Gi9 or AK7), β₁ (MAB1987), β₃ (MAB1957), GPVI (SC20149), GPIBα (MM2/174) or mouse IgG control for 2-4 h at 4° C. Protein G sepharose was added and incubated for an additional 1 h. Beads were collected and washed 4× in lysis buffer supplemented with 200 mM NaCl.

[3] = target: B1; test: co-immunoprecipitation from resting human platelet lysates (anti-GPVI SC20149), Western for MMP-1
Protocol: as §1

Sequence of PAR1 (protease-activated receptor-1) on human platelets (human) (P25116 42-425): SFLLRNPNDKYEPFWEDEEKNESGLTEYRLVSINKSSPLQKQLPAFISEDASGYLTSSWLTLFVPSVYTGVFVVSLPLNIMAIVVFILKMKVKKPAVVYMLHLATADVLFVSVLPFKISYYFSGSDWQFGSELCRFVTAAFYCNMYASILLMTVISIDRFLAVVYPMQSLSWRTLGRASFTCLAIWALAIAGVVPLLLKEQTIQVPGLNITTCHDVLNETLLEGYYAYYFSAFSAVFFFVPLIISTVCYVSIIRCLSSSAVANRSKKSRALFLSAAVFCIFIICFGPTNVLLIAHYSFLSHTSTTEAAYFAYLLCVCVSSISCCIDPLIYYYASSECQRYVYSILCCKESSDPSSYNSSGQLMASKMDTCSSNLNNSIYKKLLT
Sequence of PAR4 thrombin receptor on human platelets (human) (Q96RI0 48-385): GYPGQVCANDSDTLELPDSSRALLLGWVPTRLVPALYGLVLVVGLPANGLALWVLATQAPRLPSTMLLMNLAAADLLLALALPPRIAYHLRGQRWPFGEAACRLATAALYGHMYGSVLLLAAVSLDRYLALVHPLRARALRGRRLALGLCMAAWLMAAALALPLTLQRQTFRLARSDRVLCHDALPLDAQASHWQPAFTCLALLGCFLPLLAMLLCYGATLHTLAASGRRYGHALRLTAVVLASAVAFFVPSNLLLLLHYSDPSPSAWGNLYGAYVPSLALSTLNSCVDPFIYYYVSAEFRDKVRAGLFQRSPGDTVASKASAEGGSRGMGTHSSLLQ

P1pal-12 (PAR1 pepducin lipopeptide)
decrease in growth rate and size of platelet aggregate strings on collagen under arterial flow, 3 µM [1]: 75%

P4pal-10 (PAR4 pepducin lipopeptide)
collagen-induced platelet aggregation, 3 µM pepducin [2]: 10%

B1
binding result (GPIbα of human platelets): no binding

B2: GPVI of human platelets (receptor, UniProt Q9HCN6 21-339, looked up)
chain: QSGPLPKPSLQALPSSLVPLEKPVTLRCQGPPGVDLYRLEKLSSSRYQDQAVLFIPAMKRSLAGRYRCSYQNGSLWSLPSDQLELVATGVFAKPSLSAQPGPAVSSGGDVTLQCQTRYGFDQFALYKEGDPAPYKNPERWYRASFPIITVTAAHSGTYRCYSFSSRDPYLWSAPSDPLELVVTGTSVTPSRLPTEPPSPVAEFSEATAELTVSFTNEVFTTETSRSITASPKESDSPAGPARQYYTKGNLVRICLGAVILIILAGFLAEDWHSRRKRLRHRGRAVQRPLPPLPPLPLTRKSNGGQDGGRQDVHSRGLCS
notes: also called GPVI collagen receptor
binding result [3]: no binding
